Measured values from US11634470B2, “Integrin binding peptides and uses thereof” (Universiteit Twente, priority 2015, dated 2023).
Primed or numbered codes have the meaning given here. Where no end group is shown, it is not given here. PEG(6) = PEG(6) linker

Experiments:
[1] = system: human skin fibroblasts BJhtert; test: Scratch (wound) migration of human skin fibroblasts; type: cell-based; conditions: after 24 hours
Method: FIG. 15: Effect of peptides on migration of human fibroblasts. Human skin fibroblasts BJhtert were grown to full confluency and a scratch (wound) was made and effects of peptides were determined on the wound closure (migration of fibroblasts) after 24 hours. […] (1. SEQ ID NO:8, 2. SEQ ID NO: 11, 3. SEQ ID NO:62, 4. SEQ ID NO:63, 5. SEQ ID NO: 64, 6. SEQ ID NO:76, and 7. SEQ ID NO:68.)

α5β1 [2] = molecular target: T1, α5β1 (Homo sapiens, UniProt P08648); test: Binding of FITC-labeled peptide to coated control receptor α5β1; conditions: similar to empty wells
T1 sequence (P08648 42-894 limits assumed): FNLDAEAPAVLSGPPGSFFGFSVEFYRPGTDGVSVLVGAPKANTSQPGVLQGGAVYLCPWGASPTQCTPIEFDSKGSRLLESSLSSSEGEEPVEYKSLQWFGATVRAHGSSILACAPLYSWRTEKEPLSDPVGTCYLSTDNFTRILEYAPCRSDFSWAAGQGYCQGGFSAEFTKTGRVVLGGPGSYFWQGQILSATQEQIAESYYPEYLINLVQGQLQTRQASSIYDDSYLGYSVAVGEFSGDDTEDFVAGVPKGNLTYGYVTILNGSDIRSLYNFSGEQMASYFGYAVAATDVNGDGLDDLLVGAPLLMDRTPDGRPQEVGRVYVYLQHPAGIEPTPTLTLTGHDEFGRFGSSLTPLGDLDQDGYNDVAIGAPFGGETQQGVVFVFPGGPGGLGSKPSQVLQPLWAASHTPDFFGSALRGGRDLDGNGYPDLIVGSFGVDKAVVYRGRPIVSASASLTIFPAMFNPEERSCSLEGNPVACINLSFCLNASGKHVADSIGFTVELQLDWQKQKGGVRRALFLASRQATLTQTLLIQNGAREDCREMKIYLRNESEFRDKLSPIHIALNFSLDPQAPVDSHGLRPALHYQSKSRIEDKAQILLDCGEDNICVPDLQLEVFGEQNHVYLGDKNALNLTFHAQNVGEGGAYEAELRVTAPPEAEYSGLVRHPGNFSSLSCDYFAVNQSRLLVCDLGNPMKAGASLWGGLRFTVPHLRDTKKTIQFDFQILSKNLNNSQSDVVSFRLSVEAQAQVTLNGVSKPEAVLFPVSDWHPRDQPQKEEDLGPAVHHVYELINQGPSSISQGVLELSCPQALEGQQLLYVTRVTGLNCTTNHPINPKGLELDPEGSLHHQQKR
T1 sequence (P08648 895-995 limits assumed): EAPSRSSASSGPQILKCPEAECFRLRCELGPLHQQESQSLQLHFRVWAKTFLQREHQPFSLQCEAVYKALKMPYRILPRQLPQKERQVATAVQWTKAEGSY
T1 sequence (P05556 21-728 partner limits assumed): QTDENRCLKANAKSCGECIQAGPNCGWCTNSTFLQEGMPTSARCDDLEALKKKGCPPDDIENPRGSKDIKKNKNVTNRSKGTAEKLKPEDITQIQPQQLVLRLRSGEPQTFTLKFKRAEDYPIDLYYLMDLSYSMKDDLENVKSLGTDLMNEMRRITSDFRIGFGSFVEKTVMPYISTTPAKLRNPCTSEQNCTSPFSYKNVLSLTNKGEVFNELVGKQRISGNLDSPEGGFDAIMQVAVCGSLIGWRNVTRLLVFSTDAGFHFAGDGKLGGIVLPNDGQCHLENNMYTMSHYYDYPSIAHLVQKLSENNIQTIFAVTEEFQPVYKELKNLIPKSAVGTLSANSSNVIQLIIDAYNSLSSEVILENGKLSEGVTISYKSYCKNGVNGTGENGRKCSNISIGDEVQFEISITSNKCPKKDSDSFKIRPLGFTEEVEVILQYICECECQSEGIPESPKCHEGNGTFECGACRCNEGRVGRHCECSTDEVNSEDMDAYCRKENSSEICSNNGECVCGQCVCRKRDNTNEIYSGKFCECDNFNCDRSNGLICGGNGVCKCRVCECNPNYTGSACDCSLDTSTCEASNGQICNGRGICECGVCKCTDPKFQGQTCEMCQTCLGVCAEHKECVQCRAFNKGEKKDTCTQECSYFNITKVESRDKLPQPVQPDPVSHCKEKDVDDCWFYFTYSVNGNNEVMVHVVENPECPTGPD
Method: (§1) Purified ITGA11 receptor (α11β1; 100 μg/ml—stock; R&D systems) was diluted to 5 μg/ml with 1×PBS. 96-well ELISA White Maxisorb plate (Nunc) was coated with 50 μl of 5 μg/ml ITGA11 (or as control α5β1) receptor for overnight at 4° C. Then, wells were blocked for 3-4 hours with 200 μl of blocking buffer (1×PBS containing 5% BSA). Wells were washed three times with 200 μl of washing buffer (1×PBS containing 0.5% BSA and 0.05% TWEEN®-20). Peptides conjugated with FITC were diluted to different concentrations in washing buffer and then added to the plate and incubated at 37° C. for 1 hour. In addition, the binding of the peptide was blocked by co-incubation with 10× higher amount of unlabeled peptide. Subsequently, wells were washed three times with washing buffer. Then, 100 μl of 1×PBS was added and plates were read at 485 nm/520 nm with a fluorescence plate reader.

[3] = system: primary human pancreatic stellate cells; test: AXI-I-PEG-FITC binding assay, flow cytometry; type: cell-based; set-up: unit not given here; conditions: suspended PSCs, 1 hour at 4° C.
Method: PSCs were trypsinized using trypsin-EDTA solution and cell numbers were diluted to 4×10^4 cells/ml. Cells were incubated at 37° C. for 30 minutes to allow receptor recovery. Then different concentrations of AXI-I-FITC was added to the cells containing 2% FBS and incubated at 4° C. for 60 minutes. Thereafter, cells were centrifuged at 1500 rpm at 4° C. for 10 minutes. Supernatant was removed and cells were washed 3 times with PBS and then were fixed with 0.5% formaldehyde for 1 hour at 4° C. and measured with flow cytometry for fluorescence.

ITGA11 receptor (α11β1) = molecular target: T2, ITGA11 receptor (α11β1) (Homo sapiens, UniProt Q9UKX5); test: Binding of FITC-labeled peptides to coated ITGA11 receptor; conditions: FITC-labeled peptide, 37° C. 1 hour
T2 construct: purchased R&D systems
T2 sequence (Q9UKX5 23-1141 limits assumed): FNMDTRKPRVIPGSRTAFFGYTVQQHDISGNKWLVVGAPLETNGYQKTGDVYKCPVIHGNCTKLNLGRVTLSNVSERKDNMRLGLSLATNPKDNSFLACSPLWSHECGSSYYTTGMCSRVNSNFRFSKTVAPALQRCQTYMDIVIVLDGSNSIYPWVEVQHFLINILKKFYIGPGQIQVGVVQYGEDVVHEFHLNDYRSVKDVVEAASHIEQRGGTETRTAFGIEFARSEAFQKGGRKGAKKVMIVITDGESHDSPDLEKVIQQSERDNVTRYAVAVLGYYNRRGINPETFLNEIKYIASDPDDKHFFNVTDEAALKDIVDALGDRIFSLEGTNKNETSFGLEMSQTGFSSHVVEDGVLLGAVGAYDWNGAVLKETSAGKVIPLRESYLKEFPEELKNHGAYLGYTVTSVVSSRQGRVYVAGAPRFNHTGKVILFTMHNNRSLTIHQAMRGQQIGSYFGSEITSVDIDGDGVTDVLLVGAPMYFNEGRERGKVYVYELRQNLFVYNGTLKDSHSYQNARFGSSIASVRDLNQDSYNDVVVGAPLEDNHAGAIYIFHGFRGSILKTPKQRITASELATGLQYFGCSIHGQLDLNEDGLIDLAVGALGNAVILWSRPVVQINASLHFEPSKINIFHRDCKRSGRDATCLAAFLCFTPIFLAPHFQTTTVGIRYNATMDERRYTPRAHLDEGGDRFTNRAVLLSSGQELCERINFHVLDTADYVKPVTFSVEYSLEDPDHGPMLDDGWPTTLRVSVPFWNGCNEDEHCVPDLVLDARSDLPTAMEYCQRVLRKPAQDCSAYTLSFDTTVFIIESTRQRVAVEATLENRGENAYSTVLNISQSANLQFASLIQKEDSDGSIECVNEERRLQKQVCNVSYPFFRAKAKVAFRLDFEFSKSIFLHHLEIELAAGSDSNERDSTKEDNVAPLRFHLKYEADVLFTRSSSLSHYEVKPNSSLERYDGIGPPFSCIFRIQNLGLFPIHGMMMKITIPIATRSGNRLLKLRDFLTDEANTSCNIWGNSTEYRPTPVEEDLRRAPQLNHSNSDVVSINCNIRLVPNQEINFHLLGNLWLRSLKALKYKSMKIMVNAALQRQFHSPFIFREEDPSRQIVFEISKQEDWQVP
T2 sequence (P05556 21-728 partner limits assumed): as the sequence (P05556 21-728 partner limits assumed) above
Method: as §1

α5β1 [4] = molecular target: T1, α5β1; test: ITGA5 peptide selection, overlapping fibronectin peptides displayed on membrane; type: binding; set-up: purchased R&D systems; conditions: peptides attached by C-terminal on membrane, 5 μg/ml α5β1
Method: Peptides were attached to their c-terminal site using stable linker. […] The peptide-displaying […] membrane was soaked in methanol for 1 minute and rinsed in Tris-buffered saline (TBS) and washed 3 times. Then, the membrane was blocked with 3% BSA in 0.05% TWEEN®-20 containing TBS (TBST) for 3 hours at room temperature. Then, the membrane was washed for 10 minutes with TBST and incubated with 5 μg/ml α5β1 human recombinant protein (R&D systems) in 3% BSA in TBST for 1 hour at room temperature and then overnight at 4° C. Subsequently, the membrane was washed 3 times with TBST. Thereafter, the bound receptor to the membrane was transferred to the PVDF membrane. To achieve this, first, the PVDF membrane was soaked in methanol for 1 minute and then blocked with 5% skimmed fat milk for 2 hours. Then, the membrane was incubated with primary anti-alpha5 integrin antibody (Sigma-Aldrich) for overnight in 5% skimmed milk. The membrane was washed 3 times with TBST and then incubated with anti-rabbit-HRP secondary antibody (Dako), washed and developed with chemiluminescence detection kit.

α11β1 receptor = α11β1 receptor (Homo sapiens, UniProt Q9UKX5); test: Peptide microarray binding, alanine scanning and chain length scan of AXI-I; conditions: receptor 10 μg/ml
Sequence of α11β1 receptor (Q9UKX5 23-1141 limits assumed): as the sequence (Q9UKX5 23-1141 limits assumed) above
Sequence of α11β1 receptor (P05556 21-728 partner limits assumed): as the sequence (P05556 21-728 partner limits assumed) above
Method: Peptide microarray was prepared by conjugating peptides at their N-terminal to a glass slide using a PEG linker. […] For the binding studies, the peptide array was blocked with 3% BSA in TBST for 2 hours. Then the array slide was washed 5 times in TBST and subsequently incubated with the target receptor (α11β1, 10 μg/ml dissolved in PBS) for 1 hour at 37° C. The slides were washed with TBST and then incubated with primary antibody (1 μg/ml) against ITGA11 for 1 hour at 37° C. Then slides were washed and incubated with fluorescent dye labeled secondary antibodies for 30 minutes. The slides were washed with TBST and water and then dried and scanned with a microarray scanner to detect binding of the peptides. The enlightened spots were analyzed using ImageJ software. To determine the unspecific binding, a peptide array was incubated with only primary and secondary antibodies without the receptor incubation step. Then, the signal of unspecific binding was subtracted from the total binding to calculate specific binding.

[5] = system: human primary pancreatic stellate cells (PSCs); test: TGF-β1 activation of pancreatic stellate cells; type: cell-based; conditions: TGFβ1-activated PSCs, immunostaining, 20 μM
Method: Human primary pancreatic stellate cells (PSCs) were obtained from ScienCell (Carlsbad, Calif.) and were cultured in specified medium provided by the manufacturer, supplemented with penicillin/streptomycin. Cells were used less than the passage 9 and seeded on a Poly-L-Lysine-coated plate.
PSCs were seeded into a 12-well plate (6×10^4 cells/well, for gene expression) or 24-well plate (for staining) in complete medium. After 24 hours, cells were starved in serum-free medium and then after 24 hours, they were added with TGF-β1 (5 ng/ml) with/without the peptide.
After 24 hours of incubation, cells were lysed with the lysis buffer and total RNA was isolated using the GenElute™ Mammalian Total RNA Miniprep Kit. The RNA amount was measured by a NanoDrop® ND-1000 Spectrophotometer (Wilmington, Del.). Subsequently, cDNA was synthesized with iScript™ cDNA Synthesis Kit (BioRad, Veenendaal, The Netherlands). 10 ng cDNA was used for each PCR reaction. The real-time qPCR primers for human αSMA and RPS18 were purchased from Sigma (The Netherlands). Gene expression levels were normalized to the expression of the house-keeping gene RPS18s.
For immunostaining, the cells were washed and fixed with acetone-methanol and processed for immunocytochemical staining.
For immunocytostaining, cells were fixed with acetone-methanol (1:1) at −20° C. for 30 minutes and then dried and rehydrated for 10 minutes. […]

[6] = system: LX2 hepatic stellate cells; test: Cell binding experiment, fluorescence microscopy; type: cell-based, human; conditions: FITC-labeled peptides 20 μM, 2 hours, room temperature
Method: Human hepatic stellate cells (LX2, 15,000 cells/well) were cultured overnight in permanox Lab-Tek 8-well chamber slides (Nunc). After overnight incubation, cells were washed 3× with 0.5% BSA containing medium and then FITC-labeled peptides (20 μM) was added and incubated at room temperature for 2 hours with intermittent shaking. The cells were then washed 3× with 0.5% BSA containing medium and 2×PBS. Thereafter, cells were fixed with 4% paraformaldehyde (prepared in 1×PBS) for 20 minutes followed by 3 times washing with 1×PBS. Cells were then mounted with mounting medium with DAPI (vector labs) and visualized under the fluorescence microscope (Nikon E600). For phalloidin staining, cells after fixation were incubated with TRITC-conjugated Phalloidin (1:1000 prepared in 1×PBS containing 0.1% TRITON-X® 100) for 10 minutes. Then, cells were washed thrice with PBS and mounted with DAPI-containing mounting medium.

α5β1 [7] = molecular target: T1, α5β1; test: Peptide binding study on the coated receptor; conditions: for binding to the coated α5β1 receptor: PEG(6)-Fluorescein labeled peptide
Method: The purified human recombinant α5β1 or α11β1 receptors (5 μg/ml in PBS) were coated onto 96-well ELISA plates (White Maxisorb-Nunc) by incubating overnight at 4° C. Then, the wells were blocked with blocking buffer (5% (w/v) BSA, 150 mM Nacl, 25 mM Tris) for 2 hours at room temperature. Then, the wells were washed three times with 200 μl of washing buffer (150 mM Nacl, 25 mM Tris-base, 0.005% TWEEN® 20, 0.5% BSA). Thereafter, the peptides conjugated with PEG(6)-FITC were diluted to different concentrations in washing buffer. For the competitive studies, the wells were co-incubated with 10-fold higher amount of unlabeled peptides. The plates were incubated at 37° C. for 60 minutes. Then, the wells were washed three times with washing buffer and subsequently, the plates were read for the fluorescein signal Ex/Em 485 nm/520 nm using a fluorescent plate reader (Perkin Elmer).

## AV3.3: AV3 variant of FIG. 15 Panel B; possibly third listed peptide, SEQ ID NO:62 (RAYRITY; ITGA5 binding peptide)
[1]
  reduction on migration: about 30%

## AXI-I-FITC: AXI-I peptide labeled with PEG(6)-FITC (SGLTEWLRWFNS; also: labeled with PEG(6)-FITC, site not given here)
α5β1 [2]
  binding to irrelevant receptor α5β1: very low binding
[3]
  concentration at which binding reached plateau: 20
ITGA11 receptor (α11β1)
  binding to coated ITGA11 (α11β1) receptor: bound to the ITGA11 receptor specifically

## GDSPASSKPISI [Seq 5]
α5β1 [4]
  binding to the α5β1 receptor (signal strength): GDSPASSKPISI-moderate

## ITANSFTVHWIA [Seq 1]
α5β1 [4]
  binding to the α5β1 receptor (signal strength): ITANSFTVHWIA-weak

## LTEWLRWF (ITGA11 binding peptide)
α11β1 receptor
  binding to the α11β1 receptor on peptide microarray: strongest binding

## RYYRITYC (integrin binding peptide) [AV3-cys]
[1]
  migration of fibroblasts (wound closure): significantly inhibited the migration of fibroblasts
[5]
  expression of fibrotic markers α-SMA, Col-1a1 and vimentin: clearly inhibited the expression of these biomarkers

## SFATWTPNFERN (integrin binding peptide) [AXI-II]
[6]
  binding to LX2 hepatic stellate cells: bound to the stellate cells

## SIELTNLLVRYS [Seq 6]
α5β1 [4]
  binding to the α5β1 receptor (signal strength): SIELTNLLVRYS-moderate

## TNLLVRYSPVKN [Seq 7]
α5β1 [4]
  binding to the α5β1 receptor (signal strength): TNLLVRYSPVKN-moderate

## TTVRYYRITYGE (integrin binding peptide) [Seq 3]
α5β1 [4]
  binding to the α5β1 receptor (signal strength): TTVRYYRITYGE-strong

## VALNGREESPLL [Seq 2]
α5β1 [4]
  binding to the α5β1 receptor (signal strength): VALNGREESPLL-very weak

## YYRITYGETGGN (ITGA5 binding peptide) [nAV2]
α5β1 [7]
  binding to the coated α5β1 receptor: good binding
α5β1 [7]; excess (10-fold) of unlabeled peptide
  blocking of nAV2-PEG-fluorescein binding to coated α5β1 by excess unlabeled peptide: blocked
α5β1 [4]
  binding to the α5β1 receptor (signal strength): YYRITYGETGGN-very strong

## YYRITYGETGGN (SEQ ID NO:56)-K-PEG(6)-Fluorescein (YYRITYGETGGNK-{PEG(6)-Fluorescein}) [nAV2-FITC]
[6]
  binding to LX2 hepatic stellate cells: clearly bound to these cells

## YYRITYGETGGN: YYRITYGETGGN with PEG(6)-Fluorescein introduced at the N-terminal side of the peptide (not fully specified (N-terminus))
α5β1 [7]
  binding to the coated α5β1 receptor: no binding was observed
